Source: PMC9684461, “RNA-controlled nucleocytoplasmic shuttling of mRNA decay factors regulates mRNA synthesis and a novel mRNA decay pathway” (Nature Communications, 2021)
Each block holds one molecule with its values, some of them ahead of it.

T1: TAP-tagged Kap120 (S. cerevisiae, UniProt Q02932 1-1032)
T1 construct: karyopherin Kap120 of S. cerevisiae, TAP-tagged, expressed in yeast; also called Kap120-TAP; source: yeast, in extract, captured on IgG-sepharose
T1 sequence (looked up): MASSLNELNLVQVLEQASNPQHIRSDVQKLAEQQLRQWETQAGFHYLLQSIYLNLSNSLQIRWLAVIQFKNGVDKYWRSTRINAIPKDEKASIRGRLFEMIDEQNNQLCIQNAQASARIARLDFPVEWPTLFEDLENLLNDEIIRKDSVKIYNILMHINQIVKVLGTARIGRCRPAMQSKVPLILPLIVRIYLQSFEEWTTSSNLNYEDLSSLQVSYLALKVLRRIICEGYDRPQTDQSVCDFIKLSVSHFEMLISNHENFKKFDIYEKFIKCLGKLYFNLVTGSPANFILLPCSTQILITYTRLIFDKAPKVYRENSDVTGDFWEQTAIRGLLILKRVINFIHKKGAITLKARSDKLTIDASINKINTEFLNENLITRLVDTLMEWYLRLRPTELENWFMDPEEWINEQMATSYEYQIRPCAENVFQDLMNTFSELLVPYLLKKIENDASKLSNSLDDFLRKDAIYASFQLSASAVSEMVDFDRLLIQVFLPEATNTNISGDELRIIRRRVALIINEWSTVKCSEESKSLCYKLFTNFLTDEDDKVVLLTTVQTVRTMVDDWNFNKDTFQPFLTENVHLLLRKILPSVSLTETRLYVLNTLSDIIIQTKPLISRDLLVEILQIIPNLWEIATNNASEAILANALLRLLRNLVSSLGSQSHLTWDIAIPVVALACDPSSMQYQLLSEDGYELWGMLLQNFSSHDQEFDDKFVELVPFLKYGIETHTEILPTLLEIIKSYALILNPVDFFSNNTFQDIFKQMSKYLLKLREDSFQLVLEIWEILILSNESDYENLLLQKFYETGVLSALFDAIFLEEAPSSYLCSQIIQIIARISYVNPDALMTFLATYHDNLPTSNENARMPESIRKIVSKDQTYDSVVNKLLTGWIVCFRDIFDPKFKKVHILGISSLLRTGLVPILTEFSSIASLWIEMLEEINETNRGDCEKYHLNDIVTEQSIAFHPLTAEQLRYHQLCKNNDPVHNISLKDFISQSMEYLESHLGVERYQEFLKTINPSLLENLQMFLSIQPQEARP

B1: Pat1 (natural protein, S. cerevisiae (endogenous in yeast), UniProt P25644 1-796, looked up)
chain: MSFFGLENSGNARDGPLDFEESYKGYGEHELEENDYLNDETFGDNVQVGTDFDFGNPHSSGSSGNAIGGNGVGATARSYVAATAEGISGPRTDGTAAAGPLDLKPMESLWSTAPPPAMAPSPQSTMAPAPAPQQMAPLQPILSMQDLERQQRQMQQQFMNFHAMGHPQGLPQGPPQQQFPMQPASGQPGPSQFAPPPPPPGVNVNMNQMPMGPVQVPVQASPSPIGMSNTPSPGPVVGATKMPLQSGRRSKRDLSPEEQRRLQIRHAKVEKILKYSGLMTPRDKDFITRYQLSQIVTEDPYNEDFYFQVYKIIQRGGITSESNKGLIARAYLEHSGHRLGGRYKRTDIALQRMQSQVEKAVTVAKERPSKLKDQQAAAGNSSQDNKQANTVLGKISSTLNSKNPRRQLQIPRQQPSDPDALKDVTDSLTNVDLASSGSSSTGSSAAAVASKQRRRSSYAFNNGNGATNLNKSGGKKFILELIETVYEEILDLEANLRNGQQTDSTAMWEALHIDDSSYDVNPFISMLSFDKGIKIMPRIFNFLDKQQKLKILQKIFNELSHLQIIILSSYKTTPKPTLTQLKKVDLFQMIILKIIVSFLSNNSNFIEIMGLLLQLIRNNNVSFLTTSKIGLNLITILISRAALIKQDSSRSNILSSPEISTWNEIYDKLFTSLESKIQLIFPPREYNDHIMRLQNDKFMDEAYIWQFLASLALSGKLNHQRIIIDEVRDEIFATINEAETLQKKEKELSVLPQRSQELDTELKSIIYNKEKLYQDLNLFLNVMGLVYRDGEISELK
notes: mRNA decay factor Pat1 of S. cerevisiae, detected with anti-Pat1 antibodies; source: endogenous, yeast extract
B2: recombinant 6xHis-tagged Kap120 (natural protein, S. cerevisiae, UniProt Q02932 1-1032, looked up)
chain: T1 sequence (looked up)
notes: karyopherin (importin) Kap120 of S. cerevisiae; also called Kap120-6xHis; Kap120-His; source: E. coli, IPTG induced, purified (Ni-NTA)
B3: GFP-tagged Tail of Xrn1 (domain or fragment, S. cerevisiae, UniProt P22147 351-521, looked up)
chain: EKDDIDVEWFNKQLENISLEGERKRQRVGKKLLVKQQKKLIGSIKPWLMEQLQEKLSPDLPDEEIPTLELPKDLDMKDHLEFLKEFAFDLGLFITHSKSKGSYSLKMDLDSINPDETEEEFQNRVNSIRKTIKKYQNAIIVEDKEELETEKTIYNERFERWKHEYYHDKLK
notes: holds NLS1; also called Tail-GFP; linker domain; source: yeast, expressed under ADH1 promoter and terminator; pulled down with GFP-Trap resin and washed
B4: Dhh1 (natural protein, S. cerevisiae (endogenous in yeast), UniProt P39517 1-506, looked up)
chain: MGSINNNFNTNNNSNTDLDRDWKTALNIPKKDTRPQTDDVLNTKGNTFEDFYLKRELLMGIFEAGFEKPSPIQEEAIPVAITGRDILARAKNGTGKTAAFVIPTLEKVKPKLNKIQALIMVPTRELALQTSQVVRTLGKHCGISCMVTTGGTNLRDDILRLNETVHILVGTPGRVLDLASRKVADLSDCSLFIMDEADKMLSRDFKTIIEQILSFLPPTHQSLLFSATFPLTVKEFMVKHLHKPYEINLMEELTLKGITQYYAFVEERQKLHCLNTLFSKLQINQAIIFCNSTNRVELLAKKITDLGYSCYYSHARMKQQERNKVFHEFRQGKVRTLVCSDLLTRGIDIQAVNVVINFDFPKTAETYLHRIGRSGRFGHLGLAINLINWNDRFNLYKIEQELGTEIAAIPATIDKSLYVAENDETVPVPFPIEQQSYHQQAIPQQQLPSQQQFAIPPQQHHPQFMVPPSHQQQQAYPPPQMPSQQGYPPQQEHFMAMPPGQSQPQY
notes: mRNA decay factor Dhh1 of S. cerevisiae, detected with anti-Dhh1 antibodies; source: endogenous, yeast extract

Key:
[1] = molecular target: B2; assay: pull-down; purified Kap120-6xHis mixed with purified Xrn1-FLAG (WT or mutant), 1 h at 4 °C in a rotator; complex captured on Ni-NTA, Western blotting; Xrn1-FLAG intensity normalized to Kap120
TAP-tagged Kap120 = molecular target: T1, TAP-tagged Kap120; assay: co-IP; TAP-tagged Kap120 affinity purified with IgG-sepharose from extract of optimally proliferating yeast (WT or Xrn1^ΔNLS1/2 cells); co-IPed proteins by Western blotting; signals normalized to Kap120; conditions: partners not purified
[2] = molecular target: T2, FLAG-tagged Xrn1 (wild type) (S. cerevisiae, UniProt P22147 1-1528); assay: pull-down; purified Kap120-6xHis mixed with purified Xrn1-FLAG (WT or mutant), 1 h at 4 °C in a rotator; complex captured on Ni-NTA, Western blotting; Xrn1-FLAG intensity normalized to Kap120; conditions: both partners purified
T2 construct: 5' to 3' exonuclease Xrn1 (alias Kem1) of S. cerevisiae, called full-length Xrn1 for the FLAG-tagged purified protein; also called Xrn1-FLAG; Xrn1^WT; source: genomically FLAG-tagged strain, in lysate, for the IP with mass spectrometry

[3] = molecular target: B2; assay: pull-down; GFP-tagged Tail held on GFP-Trap resin in a small column, washed 3 times; purified Kap120-His added, 1 h at 4 °C; eluted with 2X LSB at 95 °C; conditions: both partners purified
Xrn1 WT = Xrn1 WT (Saccharomyces cerevisiae, UniProt P22147 1-1528); assay: pull-down on FLAG beads, competition by Kap120; Kap120 prevents RNA binding dose-dependently; EMSA: 50 mM Tris-HCl pH 7.4, 150 mM NaCl, 2 mM DTT, 1 mM EDTA, 30 min at room temperature, 6% native PAGE in 0.5x TBE; pull-downs with RNA: 2 mM EDTA, 1 h at 4; conditions: protein: native; tags: FLAG; label: Cy3
Chain of Xrn1 WT (P22147 whole entry): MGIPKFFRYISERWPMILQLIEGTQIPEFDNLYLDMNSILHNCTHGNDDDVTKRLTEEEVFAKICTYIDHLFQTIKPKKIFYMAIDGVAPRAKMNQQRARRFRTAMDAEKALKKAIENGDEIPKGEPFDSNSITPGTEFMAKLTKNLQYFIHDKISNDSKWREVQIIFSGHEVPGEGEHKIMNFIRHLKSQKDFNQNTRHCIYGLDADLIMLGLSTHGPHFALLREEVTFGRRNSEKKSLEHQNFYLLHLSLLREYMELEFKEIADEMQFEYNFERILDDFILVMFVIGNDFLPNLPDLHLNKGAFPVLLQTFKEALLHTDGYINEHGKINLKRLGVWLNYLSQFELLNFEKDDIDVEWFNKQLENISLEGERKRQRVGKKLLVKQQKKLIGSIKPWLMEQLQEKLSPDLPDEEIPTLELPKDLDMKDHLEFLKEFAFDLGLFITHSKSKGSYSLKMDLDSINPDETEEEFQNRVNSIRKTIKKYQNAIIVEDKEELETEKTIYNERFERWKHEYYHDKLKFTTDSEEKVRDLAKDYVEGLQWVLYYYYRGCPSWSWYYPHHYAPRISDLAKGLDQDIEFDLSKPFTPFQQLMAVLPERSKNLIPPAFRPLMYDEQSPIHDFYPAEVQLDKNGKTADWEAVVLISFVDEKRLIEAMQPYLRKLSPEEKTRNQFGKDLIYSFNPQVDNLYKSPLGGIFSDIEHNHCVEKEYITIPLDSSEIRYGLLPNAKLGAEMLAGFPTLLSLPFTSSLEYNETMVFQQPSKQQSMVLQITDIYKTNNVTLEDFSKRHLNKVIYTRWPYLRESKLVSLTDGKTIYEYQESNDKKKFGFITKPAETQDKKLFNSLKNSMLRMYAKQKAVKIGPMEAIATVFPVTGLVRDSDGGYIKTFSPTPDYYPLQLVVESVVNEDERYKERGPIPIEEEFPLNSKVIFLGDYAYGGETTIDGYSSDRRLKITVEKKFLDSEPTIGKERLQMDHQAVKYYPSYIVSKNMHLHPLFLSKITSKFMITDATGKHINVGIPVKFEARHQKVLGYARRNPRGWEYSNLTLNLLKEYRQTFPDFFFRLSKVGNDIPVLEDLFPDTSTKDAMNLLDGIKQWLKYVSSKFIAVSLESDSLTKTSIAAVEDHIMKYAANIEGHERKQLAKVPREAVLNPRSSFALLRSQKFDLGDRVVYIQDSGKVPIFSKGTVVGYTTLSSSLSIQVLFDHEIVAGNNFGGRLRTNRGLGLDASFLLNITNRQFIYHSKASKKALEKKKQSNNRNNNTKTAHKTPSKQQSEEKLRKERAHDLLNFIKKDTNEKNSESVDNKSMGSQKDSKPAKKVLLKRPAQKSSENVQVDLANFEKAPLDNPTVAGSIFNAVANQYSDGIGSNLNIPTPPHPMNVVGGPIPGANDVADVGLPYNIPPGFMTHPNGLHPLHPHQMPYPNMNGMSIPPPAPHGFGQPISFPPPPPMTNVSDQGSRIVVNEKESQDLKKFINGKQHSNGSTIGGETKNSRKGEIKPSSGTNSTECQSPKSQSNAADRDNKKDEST

T2 sequence (P22147 whole entry): as above

fold weaker than Xrn1^WT-Kap120 [1]: 4.5 fold
Molecule: FLAG-tagged Xrn1^ΔNLS1/2 (from UniProt P22147 1-1528) (enzyme)

Molecule: B1
fold reduction of the co-IP in Xrn1^ΔNLS1/2 cells against WT cells (TAP-tagged Kap120): ~5 fold

Molecule: B2
binding result [2]: binds

Molecule: B3
binding result [3]: binds

Molecule: AUGUACAGUCCGACGAACACGGAGUCGACCCGCAACGCGA (ssRNA) [Cy3-labeled 40 b RNA]
binding result (Xrn1 WT): binds

Molecule: B4
fold reduction of the co-IP in Xrn1^ΔNLS1/2 cells against WT cells (TAP-tagged Kap120): ~5 fold
